Reference: PMC10942865

T1: β-TrCP, endogenous, Q9Y297
T1 chain: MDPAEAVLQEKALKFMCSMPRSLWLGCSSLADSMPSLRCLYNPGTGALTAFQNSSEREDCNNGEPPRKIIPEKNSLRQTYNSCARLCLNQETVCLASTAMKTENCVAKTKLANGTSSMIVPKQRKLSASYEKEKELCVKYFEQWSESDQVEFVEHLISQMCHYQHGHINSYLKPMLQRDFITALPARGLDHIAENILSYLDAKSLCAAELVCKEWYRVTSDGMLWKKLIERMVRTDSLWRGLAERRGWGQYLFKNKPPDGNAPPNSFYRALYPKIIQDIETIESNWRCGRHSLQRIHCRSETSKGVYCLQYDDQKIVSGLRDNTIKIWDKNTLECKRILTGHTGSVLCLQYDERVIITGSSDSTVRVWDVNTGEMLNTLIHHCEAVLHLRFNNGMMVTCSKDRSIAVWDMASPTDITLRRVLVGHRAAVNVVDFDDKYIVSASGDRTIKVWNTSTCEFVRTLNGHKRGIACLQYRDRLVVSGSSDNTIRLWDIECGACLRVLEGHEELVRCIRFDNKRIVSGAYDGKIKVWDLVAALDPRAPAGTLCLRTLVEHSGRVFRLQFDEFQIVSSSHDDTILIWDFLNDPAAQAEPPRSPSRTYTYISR


Target: T1, β-TrCP, endogenous, Q9Y297
Experiment: co-immunoprecipitation (IP against Flag tag, Western blot quantification)
Conditions: chain shown with the change; HEK293T cells, 48 h overexpression, N = 3; parent: est. 1.0; read off a plot

Binder | ratio to parent
Flag-PLK4 wt (polo-like kinase 4), full-length, O00444 K41R (protein) MATCIGEKIEDFKVGNLLGKGSFAGVYRAESIHTGLEVAIRMIDKKAMYKAGMVQRVQNEVKIHCQLKHPSILELYNYFEDSNYVYLVLEMCHNGEMNRYLKNRVKPFSENEARHFMHQIITGMLYLHSHGILHRDLTLSNLLLTRNMNIKIADFGLATQLKMPHEKHYTLCGTPNYISPEIATRSAHGLESDVWSLGCMFYTLLIGRPPFDTDTVKNTLNKVVLADYEMPSFLSIEAKDLIHQLLRRNPADRLSLSSVLDHPFMSRNSSTKSKDLGTVEDSIDSGHATISTAITASSSTSISGSLFDKRRLLIGQPLPNKMTVFPKNKSSTDFSSSGDGNSFYTQWGNQETSNSGRGRVIQDAEERPHSRYLRRAYSSDRSGTSNSQSQAKTYTMERCHSAEMLSVSKRSGGGENEERYSPTDNNANIFNFFKEKTSSSSGSFERPDNNQALSNHLCPGKTPFPFADPTPQTETVQQWFGNLQINAHLRKTTEYDSISPNRDFQGHPDLQKDTSKNAWTDTKVKKNSDASDNAHSVKQQNTMKYMTALHSKPEIIQQECVFGSDPLSEQSKTRGMEPPWGYQNRTLRSITSPLVAHRLKPIRQKTKKAVVSILDSEEVCVELVKEYASQEYVKEVLQISSDGNTITIYYPNGGRGFPLADRPPSPTDNISRYSFDNLPEKYWRKYQYASRFVQLVRSKSPKITYFTRYAKCILMENSPGADFEVWFYDGVKIHKTEDFIQVIEKTGKSYTLKSESEVNSLKEEIKMYMDHANEGHRICLALESIISEEERKTRSAPFFPIIIGRKPGSTSSPKALSPPPSVDSNYPTRERASFNRMVMHSAASPTQAPILNPSMVTNEGLGLTTTASGTDISSNSLKDCLPKSAQLLKSVFVKNVGWATQLTSGAVWVQFNDGSQLVVQAGVSSISYTSPNGQTTRYGENEKLPDYIKQKLQCLSSILLMFSNPTPNFH | 0.07
Flag-PLK4 wt (polo-like kinase 4), full-length, O00444 S285A; T289A (protein) MATCIGEKIEDFKVGNLLGKGSFAGVYRAESIHTGLEVAIKMIDKKAMYKAGMVQRVQNEVKIHCQLKHPSILELYNYFEDSNYVYLVLEMCHNGEMNRYLKNRVKPFSENEARHFMHQIITGMLYLHSHGILHRDLTLSNLLLTRNMNIKIADFGLATQLKMPHEKHYTLCGTPNYISPEIATRSAHGLESDVWSLGCMFYTLLIGRPPFDTDTVKNTLNKVVLADYEMPSFLSIEAKDLIHQLLRRNPADRLSLSSVLDHPFMSRNSSTKSKDLGTVEDSIDAGHAAISTAITASSSTSISGSLFDKRRLLIGQPLPNKMTVFPKNKSSTDFSSSGDGNSFYTQWGNQETSNSGRGRVIQDAEERPHSRYLRRAYSSDRSGTSNSQSQAKTYTMERCHSAEMLSVSKRSGGGENEERYSPTDNNANIFNFFKEKTSSSSGSFERPDNNQALSNHLCPGKTPFPFADPTPQTETVQQWFGNLQINAHLRKTTEYDSISPNRDFQGHPDLQKDTSKNAWTDTKVKKNSDASDNAHSVKQQNTMKYMTALHSKPEIIQQECVFGSDPLSEQSKTRGMEPPWGYQNRTLRSITSPLVAHRLKPIRQKTKKAVVSILDSEEVCVELVKEYASQEYVKEVLQISSDGNTITIYYPNGGRGFPLADRPPSPTDNISRYSFDNLPEKYWRKYQYASRFVQLVRSKSPKITYFTRYAKCILMENSPGADFEVWFYDGVKIHKTEDFIQVIEKTGKSYTLKSESEVNSLKEEIKMYMDHANEGHRICLALESIISEEERKTRSAPFFPIIIGRKPGSTSSPKALSPPPSVDSNYPTRERASFNRMVMHSAASPTQAPILNPSMVTNEGLGLTTTASGTDISSNSLKDCLPKSAQLLKSVFVKNVGWATQLTSGAVWVQFNDGSQLVVQAGVSSISYTSPNGQTTRYGENEKLPDYIKQKLQCLSSILLMFSNPTPNFH | 0.03
